Source: article PMC10819331

tested on: T1, MBP-Z3495 (LysR-type regulator) (Escherichia coli O157:H7 EDL933?), ORF:b652805f; experiment: EMSA
T1 sequence: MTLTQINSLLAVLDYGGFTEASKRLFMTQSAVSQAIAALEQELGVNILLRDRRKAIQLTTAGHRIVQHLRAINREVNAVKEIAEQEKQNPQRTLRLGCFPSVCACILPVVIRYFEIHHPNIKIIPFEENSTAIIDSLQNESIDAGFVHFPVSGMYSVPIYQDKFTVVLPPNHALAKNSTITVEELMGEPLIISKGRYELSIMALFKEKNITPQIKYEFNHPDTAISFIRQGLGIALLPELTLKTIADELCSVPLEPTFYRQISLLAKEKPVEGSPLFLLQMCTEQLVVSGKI

Row | Sequence | binding
1 | AATTCCCGATTACGCATCGCACCATTGAGAAGTTTTATTTTATATGAGGATAACATTTTTAAATTTTATTCATCCTGGTGGTTGAACAATGAGAAAAAATATGGTGAACTTACATCGTCTAAGAATAGAGTAGAAAGGAAGCTGTTGTACAGTACTATTTAATGGAATATTCATAATTAAT (double strand) [LEE4 promoter] | no binding
2 | GTTATCGCAGGGAGCCACACAGCGTGTGTTGGACGCGACTCAGCTTTACCTTGGTGAGATTGGTTATTCACCACTGTTAACGGCCGAAGAAGAAGTTTATTTTGCGCGTCGCGCACTGCGTGGAGATGTCGCCTCTCGCCGCCGGATGATCGAGAGTAACTTGCGTCTGGTGGTAAAA (double strand) [rpoS fragment] | no binding
3 | TAAAAACTCTTCAACGTTTCTTTTAACTAAAAGATTCATCTGCAGGCTCTGAAGTAAGTATACGTGTGAATATTATTGCTTGAAAAAGCGTATTGGATAATATATACAGTATATGTACTTTATGTACATTGCAACTATTTAAATAATATAATAGTTGCCTATGGGATAATTTGGTTATTTATAACCAGGTAAATGTCTAAATTAGACAAAAGGAGAAAGATCAATGGAAGCAGCAAATTTAAGTCCTTCTGGTGCAGTAATGCCGCTGGCGACCTCACTCA (double strand) [LEE2/3 promoter] | no binding
